B1: GS3346 (nucleic acid)
sense: GUAGAGUUGAGCUUGGCCCUAAUGGCGUAAAUAAGAUCCAUGAAGUGGGAAACCUUGCUCCUGAAGAACAAGGUCUUUUAAAAGCUGCUCUAGUUGAUUUGUUAAAGAAUAUCGAAAAAGGAAUCAAAUUUGUUAACCAGAACCCCGGUGAAUAAAUAAAAUGUUAUUCAAUUUACAAUCUGUUGUUUUUUGAUCGUGGAUACCUUGAUAUUCAGUAACGAGGGAGAAUCAUUCUCCUGUCCCAAAAAAGUACUAUCUACUAUCUUAAAUUUUAUGGAAUCUUGAAUUUGUCCAAUGUAUCAAUAGAAAAAUUCUUUCAAAUUACAAGUCAAAAGUAUUAUGAAAAUUAAAAAGGACUAAUCCUCUUACAUAGAUAUAUAUAAAUAUA
antisense: UAUAUUUAUAUAUAUCUAUGUAAGAGGAUUAGUCCUUUUUAAUUUUCAUAAUACUUUUGACUUGUAAUUUGAAAGAAUUUUUCUAUUGAUACAUUGGACAAAUUCAAGAUUCCAUAAAAUUUAAGAUAGUAGAUAGUACUUUUUUGGGACAGGAGAAUGAUUCUCCCUCGUUACUGAAUAUCAAGGUAUCCACGAUCAAAAAACAACAGAUUGUAAAUUGAAUAACAUUUUAUUUAUUCACCGGGGUUCUGGUUAACAAAUUUGAUUCCUUUUUCGAUAUUCUUUAACAAAUCAACUAGAGCAGCUUUUAAAAGACCUUGUUCUUCAGGAGCAAGGUUUCCCACUUCAUGGAUCUUAUUUACGCCAUUAGGGCCAAGCUCAACUCUAC
B2: GS3337 (nucleic acid)
sense: UUUAUUAUGGCACUGGCGUGAAAAUACCUUAUCCCAAGGCAGAUACCGAUAAUGCGAGUGCUCAUGGAUAUACAAACAUUAAGGGCGGUAAUCCGGAAGGACGAGCUUUUCACCAUGGUAGACUAAUAUCUCAGCUCCGUAGAUGCUGCUCCCAGAACCCGAACAUCAAAAUUGUUGAAACGCUGGUUACAGAGACUAUUACGAAUCCUCAAACCCAAACUGUAAUUGGCGUAAGGUCAGAGACAAUGAAUGAUAAAACAGGCAAAAGAGAAGCCGACUACUAUUUGGGAGAUCUCACAAUUAUCGCCGAUGGAUAUGCAUCUAAAUUCCGAAAGCAGUAUAUAGACAAGUCACCCAUCGUAAAAAGCAAAUUCUAUGCUUUAGAGCUGAUAGAUU
antisense: AAUCUAUCAGCUCUAAAGCAUAGAAUUUGCUUUUUACGAUGGGUGACUUGUCUAUAUACUGCUUUCGGAAUUUAGAUGCAUAUCCAUCGGCGAUAAUUGUGAGAUCUCCCAAAUAGUAGUCGGCUUCUCUUUUGCCUGUUUUAUCAUUCAUUGUCUCUGACCUUACGCCAAUUACAGUUUGGGUUUGAGGAUUCGUAAUAGUCUCUGUAACCAGCGUUUCAACAAUUUUGAUGUUCGGGUUCUGGGAGCAGCAUCUACGGAGCUGAGAUAUUAGUCUACCAUGGUGAAAAGCUCGUCCUUCCGGAUUACCGCCCUUAAUGUUUGUAUAUCCAUGAGCACUCGCAUUAUCGGUAUCUGCCUUGGGAUAAGGUAUUUUCACGCCAGUGCCAUAAUAAA
B3: GS1798: dsRNA trigger SEQ ID NO 192; gene target Tip elongation aberrant protein 1 (nucleic acid)
DNA: AAATGTGTACCACCTTCTTGATGTAATTCTGAACGCAGCCAAATCTCCCAAGTCAGATCCATCGTCAGCCCGTCCTCCAAAGACATACATCACATCGTCAACAATTGCTGCAGCATGACCTTCTCTTGGAACCGGTATATATCCTATGCAGTCCAAAAGAGTCCAGGAGTTCGGTATCGGATCATAACACCAAACATCGTTATACCATTGAAGACCATTTGTTCCGCCAAACAAGTAAAGCTTTTCATTATATGTCACAACTGAGTGATTTGTTCTAGCTGATGGTATTTGTCCTACTGGGGGTCCACCATCCTCACTATTTTTAATGAGAATTTCCCACCTGTTCGTAGGGACTTGCAAAAGATTCAAATCAAAAGCCACAAGGTCATTCATAAAATAACCCTCTACTTGCCCCCCGAATACGTAGATTTTAGACCCTAGTATATTGAGAGAATGACCATAACGCCCCGCGGGCCGTGGCCCGGCAGGTATAGCTCTGGACCATTGTCGGGTAGAGGTATTAAGTAAGTAAAGAGTTTCATCTAATACGTCAGAATCGTCCATTTTAGTATCCCCACCATATACAATAAAAGCATTT
B4: GS3344 (nucleic acid)
sense: GACUAUUGUCCUGACUAAACUAUAUACCAUCUGCUAACACGAUCCUCAAAGCAAAAUUUUUAACCGAUGAUCAUAAGUCAUGUAAAAGUUGAAAUUUCAACACACACCAAGAAAAAUAGCCUUGGUCUUUCAAUUUACAGCAUCCAUAUGGAUGCUAUUUUCUUAUAUAUUUCACCUACCUCCUGAGAACUGCAUCAAGAUUCGAGGUCGUUUCUUUAUAUAAUCAUGUCAAAUAAUGCAUGAUAAAUGAGUAAGAGGCUCUAGGCAGUCAAACUCAAAGAAUUGUCUUCAAUUGUAUUGUCAUUUUAUCUCAUUUGAUAAUGAGUUGUAGCCGCAACUCAAAUCAUUUUUCAUUUUUUGAAAAUGAAGUAAAAGACCGGUUUAAAAAAUUAAAUAUC
antisense: GAUAUUUAAUUUUUUAAACCGGUCUUUUACUUCAUUUUCAAAAAAUGAAAAAUGAUUUGAGUUGCGGCUACAACUCAUUAUCAAAUGAGAUAAAAUGACAAUACAAUUGAAGACAAUUCUUUGAGUUUGACUGCCUAGAGCCUCUUACUCAUUUAUCAUGCAUUAUUUGACAUGAUUAUAUAAAGAAACGACCUCGAAUCUUGAUGCAGUUCUCAGGAGGUAGGUGAAAUAUAUAAGAAAAUAGCAUCCAUAUGGAUGCUGUAAAUUGAAAGACCAAGGCUAUUUUUCUUGGUGUGUGUUGAAAUUUCAACUUUUACAUGACUUAUGAUCAUCGGUUAAAAAUUUUGCUUUGAGGAUCGUGUUAGCAGAUGGUAUAUAGUUUAGUCAGGACAAUAGUC
B5: GS3343 (nucleic acid)
sense: CUAGCACUUACGAGCACGUCUCUUUGAAUUCAACUAGAGACUCACAAUUAUACCUUCCUCCUAUUAAAUCUUUAGUAUUGGAUACGAAAAAUGAGGGAAGUUAUUAGUGUUAAUGUUGGCCAAGCUGGGUGCCAAAUAGCAAACUCUUGCUGGGAGCUCUAUUGCCUUGAGCAUGGUAUACAGCCUGAUGGUUACUUAACGGAGAAGCGCAAGGCCGCCGAACCUGACGAAGGUUUCAGCACUUUUUUUUCAGAGACUGGUCAGGGAAAAUACGUACCUAGAACUAUUUAUUGUGAUCUUGAACCAAAUGUAGUCGAUGAAGUUCGUACGGGUACUUAUCGUAGCUUAUUCCACCCCGAGCAAAUGAUCACCGGAAAAGAAGAUGCAUCAAACAAUUA
antisense: UAAUUGUUUGAUGCAUCUUCUUUUCCGGUGAUCAUUUGCUCGGGGUGGAAUAAGCUACGAUAAGUACCCGUACGAACUUCAUCGACUACAUUUGGUUCAAGAUCACAAUAAAUAGUUCUAGGUACGUAUUUUCCCUGACCAGUCUCUGAAAAAAAAGUGCUGAAACCUUCGUCAGGUUCGGCGGCCUUGCGCUUCUCCGUUAAGUAACCAUCAGGCUGUAUACCAUGCUCAAGGCAAUAGAGCUCCCAGCAAGAGUUUGCUAUUUGGCACCCAGCUUGGCCAACAUUAACACUAAUAACUUCCCUCAUUUUUCGUAUCCAAUACUAAAGAUUUAAUAGGAGGAAGGUAUAAUUGUGAGUCUCUAGUUGAAUUCAAAGAGACGUGCUCGUAAGUGCUAG

These molecules were tested on E. necator (assay: Leaf disc assay, dry inoculum (settling tower), decrease in disease severity / hyphal growth (Example 2)). Settings: decrease in disease severity (hyphal growth) relative to untreated control; time point 1 (untreated control hyphal growth ≥50%); value ± SE.

**Q.** For B1, which “% decrease =/− SE TP1” value is on record?
**A.** The value was 3 ± 6%.

**Q.** Which “% decrease =/− SE TP1” value does the source give for B2 here?
**A.** The value was 19 ± 5%.

**Q.** Which “% decrease =/− SE TP1” value does the source give for B3 here?
**A.** The value was 44 ± 4%.

**Q.** With B4 as the molecule, how does the “% decrease =/− SE TP1” value read?
**A.** The value was 1 ± 7%.

**Q.** B5 was tested. Which “% decrease =/− SE TP1” value did it give?
**A.** The value was 7 ± 6%.

Same assay, conditions: decrease in disease severity (hyphal growth) relative to untreated control; time point 2; value ± SE

**Q.** Which “% decrease =/− SE TP2” value does the source give for B2 here?
**A.** The value was 15 ± 7%.

**Q.** With B3 as the molecule, how does the “% decrease =/− SE TP2” value read?
**A.** The value was 47 ± 5%.
